Laboratory results from IntAct's records for PubMed 32296183.

B1: Very-long-chain enoyl-CoA reductase (Homo sapiens), Q9NZ01 (parent)
chain: MKHYEVEILDAKTREKLCFLDKVEPHATIAEIKNLFTKTHPQWYPARQSLRLDPKGKSLKDEDVLQKLPVGTTATLYFRDLGAQISWVTVFLTEYAGPLFIYLLFYFRVPFIYGHKYDFTSSRHTVVHLACICHSFHYIKRLLETLFVHRFSHGTMPLRNIFKNCTYYWGFAAWMAYYINHPLYTPPTYGAQQVKLALAIFVICQLGNFSIHMALRDLRPAGSKTRKIPYPTKNPFTWLFLLVSCPNYTYEVGSWIGFAIMTQCLPVALFSLVGFTQMTIWAKGKHRSYLKEFRDYPPLRMPIIPFLL
partner: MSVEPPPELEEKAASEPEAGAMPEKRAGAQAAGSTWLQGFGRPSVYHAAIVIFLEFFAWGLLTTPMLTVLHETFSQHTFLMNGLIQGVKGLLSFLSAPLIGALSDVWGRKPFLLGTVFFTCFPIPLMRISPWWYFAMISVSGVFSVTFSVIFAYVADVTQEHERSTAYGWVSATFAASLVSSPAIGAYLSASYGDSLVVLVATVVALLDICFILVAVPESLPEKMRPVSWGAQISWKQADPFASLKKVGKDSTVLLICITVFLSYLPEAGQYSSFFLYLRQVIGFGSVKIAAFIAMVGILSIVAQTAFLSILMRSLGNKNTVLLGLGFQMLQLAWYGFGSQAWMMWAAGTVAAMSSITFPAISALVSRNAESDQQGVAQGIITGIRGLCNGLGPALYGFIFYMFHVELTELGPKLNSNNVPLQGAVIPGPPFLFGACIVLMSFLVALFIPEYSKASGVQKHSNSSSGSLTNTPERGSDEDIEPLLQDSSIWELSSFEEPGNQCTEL
B2: Catenin alpha-3 (Homo sapiens), Q9UI47-2 (parent)
chain: MSAETPITLNIDPQDLQVQTFTVEKLLEPLIIQVTTLVNCPQNPSSRKKGRSKRASVLLASVEEATWNLLDKGEKIAQEATVLKDELTASLEEVRKESEALKVSAERFTDDPCFLPKREAVVQAARALLAAVTRLLILADMIDVMCLLQHVSAFQRTFESLKNVANKSDLQKTYQKLGKELENLDYLAFKRQQDLKSPNQRDEIAGARASLKENSPLLHSICSACLEHSDVASLKASKDTVCEEIQNALNVISNASQGIQNMTTPPEPQAATLGSALDELENLIVLNPLTVTEEEIRPSLEKRLEAIISGAALLADSSCTRDLHRERIIAECNAIRQALQDLLSEYMNNAGKKERSNTLNIALDNMCKKTRDLRRQLRKAIIDHVSDSFLDTTVPLLVLIEAAKNGREKEIKEYAAIFHEHTSRLVEVANLACSMSTNEDGIKIVKIAANHLETLCPQIINAALALAARPKSQAVKNTMEMYKRTWENHIHVLTEAVDDITSIDDFLAVSGMFLFF
partner: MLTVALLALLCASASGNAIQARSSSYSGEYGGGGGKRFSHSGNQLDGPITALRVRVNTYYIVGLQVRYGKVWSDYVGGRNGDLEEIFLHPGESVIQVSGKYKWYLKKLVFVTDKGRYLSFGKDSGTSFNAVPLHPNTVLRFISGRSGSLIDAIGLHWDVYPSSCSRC
B3: Golgi SNAP receptor complex member 2 (Homo sapiens), O14653 (parent)
chain: MDPLFQQTHKQVHEIQSCMGRLETADKQSVHIVENEIQASIDQIFSRLERLEILSSKEPPNKRQNARLRVDQLKYDVQHLQTALRNFQHRRHAREQQERQREELLSRTFTTNDSDTTIPMDESLQFNSSLQKVHNGMDDLILDGHNILDGLRTQRLTLKGTQKKILDIANMLGLSNTVMRLIEKRAFQDKYFMIGGMLLTCVVMFLVVQYLT
partner: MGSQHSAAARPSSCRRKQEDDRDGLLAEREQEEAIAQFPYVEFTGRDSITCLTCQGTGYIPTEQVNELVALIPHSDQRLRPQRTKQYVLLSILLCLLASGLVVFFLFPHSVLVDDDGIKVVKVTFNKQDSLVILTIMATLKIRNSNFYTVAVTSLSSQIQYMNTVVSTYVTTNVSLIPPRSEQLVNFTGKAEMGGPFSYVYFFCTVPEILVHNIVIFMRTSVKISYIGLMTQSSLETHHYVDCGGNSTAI
B4: Golgi SNAP receptor complex member 2 (Homo sapiens), O14653 (parent)
chain: B3 chain
partner: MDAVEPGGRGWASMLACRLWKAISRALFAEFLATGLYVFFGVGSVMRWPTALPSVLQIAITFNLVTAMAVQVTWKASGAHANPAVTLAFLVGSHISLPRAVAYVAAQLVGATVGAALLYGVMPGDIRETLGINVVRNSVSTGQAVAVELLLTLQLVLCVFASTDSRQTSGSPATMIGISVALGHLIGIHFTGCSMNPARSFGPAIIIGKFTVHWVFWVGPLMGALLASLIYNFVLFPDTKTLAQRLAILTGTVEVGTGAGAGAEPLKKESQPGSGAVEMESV
B5: Ceroid-lipofuscinosis neuronal protein 6 (Homo sapiens), Q9NWW5 (parent)
chain: MEATRRRQHLGATGGPGAQLGASFLQARHGSVSADEAARTAPFHLDLWFYFTLQNWVLDFGRPIAMLVFPLEWFPLNKPSVGDYFHMAYNVITPFLLLKLIERSPRTLPRSITYVSIIIFIMGASIHLVGDSVNHRLLFSGYQHHLSVRENPIIKNLKPETLIDSFELLYYYDEYLGHCMWYIPFFLILFMYFSGCFTASKAESLIPGPALLLVAPSGLYYWYLVTEGQIFILFIFTFFAMLALVLHQKRKRLFLDSNGLFLFSSFALTLLLVALWVAWLWNDPVLRKKYPGVIYVPEPWAFYTLHVSSRH
partner: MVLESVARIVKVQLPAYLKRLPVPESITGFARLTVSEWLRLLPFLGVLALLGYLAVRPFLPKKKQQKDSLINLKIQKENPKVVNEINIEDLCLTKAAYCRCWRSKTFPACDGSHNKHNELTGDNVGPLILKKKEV
B6: Dolichol kinase (Homo sapiens), Q9UPQ8 (parent)
chain: MTRECPSPAPGPGAPLSGSVLAEAAVVFAVVLSIHATVWDRYSWCAVALAVQAFYVQYKWDRLLQQGSAVFQFRMSANSGLLPASMVMPLLGLVMKERCQTAGNPFFERFGIVVAATGMAVALFSSVLALGITRPVPTNTCVILGLAGGVIIYIMKHSLSVGEVIEVLEVLLIFVYLNMILLYLLPRCFTPGEALLVLGGISFVLNQLIKRSLTLVESQGDPVDFFLLVVVVGMVLMGIFFSTLFVFMDSGTWASSIFFHLMTCVLSLGVVLPWLHRLIRRNPLLWLLQFLFQTDTRIYLLAYWSLLATLACLVVLYQNAKRSSSESKKHQAPTIARKYFHLIVVATYIPGIIFDRPLLYVAATVCLAVFIFLEYVRYFRIKPLGHTLRSFLSLFLDERDSGPLILTHIYLLLGMSLPIWLIPRPCTQKGSLGGARALVPYAGVLAVGVGDTVASIFGSTMGEIRWPGTKKTFEGTMTSIFAQIISVALILIFDSGVDLNYSYAWILGSISTVSLLEAYTTQIDNLLLPLYLLILLMA
B7: Golgi SNAP receptor complex member 2 (Homo sapiens), O14653 (parent)
chain: B3 chain
partner: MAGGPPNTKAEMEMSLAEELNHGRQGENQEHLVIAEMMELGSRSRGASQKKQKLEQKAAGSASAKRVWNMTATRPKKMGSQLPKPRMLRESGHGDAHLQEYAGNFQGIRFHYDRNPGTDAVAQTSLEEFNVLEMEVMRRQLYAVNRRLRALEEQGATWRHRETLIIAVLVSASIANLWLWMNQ
B8: Golgi SNAP receptor complex member 2 (Homo sapiens), O14653 (parent)
chain: B3 chain
partner: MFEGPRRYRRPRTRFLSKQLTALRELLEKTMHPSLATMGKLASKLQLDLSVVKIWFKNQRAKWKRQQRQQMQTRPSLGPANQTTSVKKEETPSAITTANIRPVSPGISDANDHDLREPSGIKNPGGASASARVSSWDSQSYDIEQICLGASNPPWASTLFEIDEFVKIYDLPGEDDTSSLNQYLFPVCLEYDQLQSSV
B9: Catenin alpha-3 (Homo sapiens), Q9UI47-2 (parent)
chain: B2 chain
partner: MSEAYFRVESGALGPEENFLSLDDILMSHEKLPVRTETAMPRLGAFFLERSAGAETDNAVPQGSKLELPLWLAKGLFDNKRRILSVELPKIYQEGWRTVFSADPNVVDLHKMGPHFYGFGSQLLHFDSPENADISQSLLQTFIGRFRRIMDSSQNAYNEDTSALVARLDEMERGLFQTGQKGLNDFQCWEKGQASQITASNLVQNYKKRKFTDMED

Variants of: B1
Conditions: with mf14b_human MFSD14B

| effect of a mutation on the interaction | Variant |
| --- | --- |
| disrupting interaction strength | P182L |

Variants of: B2
Conditions: with zg16_human ZG16, O60844

| effect of a mutation on the interaction | Variant |
| --- | --- |
| disrupting interaction strength | V94D |

Variants of: B3
Conditions: with TMEM106C

| effect of a mutation on the interaction | Variant |
| --- | --- |
| disrupting interaction strength | G144W |

Variants of: B4
Conditions: with aqp6_human AQP6, Q13520

| effect of a mutation on the interaction | Variant |
| --- | --- |
| with no effect | G144W |

Variants of: B5
Conditions: with cisd2_human CISD2, Q8N5K1

| effect of a mutation on the interaction | Variant |
| --- | --- |
| with no effect | G123D |
| with no effect | L47F |
| with no effect | R6T |

Variants of: B6
Conditions: with kca10_human KCNA10, Q16322
Chain of kca10_human KCNA10, Q16322 (Q16322 whole entry): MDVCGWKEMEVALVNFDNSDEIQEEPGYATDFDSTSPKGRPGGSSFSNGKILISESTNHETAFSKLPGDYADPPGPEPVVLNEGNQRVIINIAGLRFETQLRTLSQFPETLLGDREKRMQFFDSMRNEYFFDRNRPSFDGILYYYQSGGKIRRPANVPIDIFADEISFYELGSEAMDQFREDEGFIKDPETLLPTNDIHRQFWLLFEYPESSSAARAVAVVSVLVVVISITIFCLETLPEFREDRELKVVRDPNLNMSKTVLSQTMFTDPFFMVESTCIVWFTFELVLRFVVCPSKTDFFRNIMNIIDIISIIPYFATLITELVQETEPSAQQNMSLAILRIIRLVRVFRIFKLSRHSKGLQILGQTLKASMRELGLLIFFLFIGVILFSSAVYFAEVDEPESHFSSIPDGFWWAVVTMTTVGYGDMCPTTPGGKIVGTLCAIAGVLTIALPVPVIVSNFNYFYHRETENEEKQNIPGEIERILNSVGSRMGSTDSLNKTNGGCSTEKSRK

| effect of a mutation on the interaction | Variant |
| --- | --- |
| disrupting interaction strength | Y441S |

Variants of: B6
Conditions: with kcna6_human KCNA6, P17658
Chain of kcna6_human KCNA6, P17658 (P17658 whole entry): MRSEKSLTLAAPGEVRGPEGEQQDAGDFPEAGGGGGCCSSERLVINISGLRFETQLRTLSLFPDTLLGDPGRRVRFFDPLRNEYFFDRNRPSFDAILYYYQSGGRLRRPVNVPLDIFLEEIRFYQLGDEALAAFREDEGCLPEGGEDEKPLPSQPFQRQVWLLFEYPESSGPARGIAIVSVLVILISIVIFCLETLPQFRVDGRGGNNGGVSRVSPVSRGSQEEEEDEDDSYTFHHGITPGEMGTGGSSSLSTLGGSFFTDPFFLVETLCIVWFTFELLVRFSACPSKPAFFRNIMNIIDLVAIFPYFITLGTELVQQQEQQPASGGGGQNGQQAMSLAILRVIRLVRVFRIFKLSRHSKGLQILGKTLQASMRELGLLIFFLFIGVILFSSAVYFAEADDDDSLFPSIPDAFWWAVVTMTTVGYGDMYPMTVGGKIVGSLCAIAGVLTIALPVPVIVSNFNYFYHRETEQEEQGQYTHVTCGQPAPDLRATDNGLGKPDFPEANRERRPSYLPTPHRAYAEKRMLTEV

| effect of a mutation on the interaction | Variant |
| --- | --- |
| disrupting interaction strength | Y441S |

Variants of: B6
Conditions: with eda_human EDA

| effect of a mutation on the interaction | Variant |
| --- | --- |
| disrupting interaction strength | Y441S |

Variants of: B6
Conditions: with apbp2_human APPBP2, Q92624
Chain of apbp2_human APPBP2, Q92624 (Q92624 whole entry): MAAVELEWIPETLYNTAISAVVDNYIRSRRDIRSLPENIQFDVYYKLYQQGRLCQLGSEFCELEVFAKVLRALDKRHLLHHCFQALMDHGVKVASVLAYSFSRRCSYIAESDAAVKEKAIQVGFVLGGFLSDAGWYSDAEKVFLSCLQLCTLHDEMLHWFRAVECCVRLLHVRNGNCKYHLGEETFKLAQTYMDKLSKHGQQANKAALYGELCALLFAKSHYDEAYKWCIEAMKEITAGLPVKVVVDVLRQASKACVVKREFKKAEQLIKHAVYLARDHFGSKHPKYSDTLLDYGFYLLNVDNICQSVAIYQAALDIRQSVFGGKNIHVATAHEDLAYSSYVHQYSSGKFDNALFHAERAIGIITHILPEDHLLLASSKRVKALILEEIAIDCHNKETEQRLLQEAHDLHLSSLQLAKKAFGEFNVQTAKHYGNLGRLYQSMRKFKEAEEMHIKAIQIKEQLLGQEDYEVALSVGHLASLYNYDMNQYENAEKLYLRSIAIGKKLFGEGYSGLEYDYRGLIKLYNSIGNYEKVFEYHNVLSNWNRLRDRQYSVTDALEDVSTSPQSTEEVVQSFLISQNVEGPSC

| effect of a mutation on the interaction | Variant |
| --- | --- |
| disrupting interaction strength | Y441S |

Variants of: B6
Conditions: with kcna1_human KCNA1, Q09470
Chain of kcna1_human KCNA1, Q09470 (Q09470 whole entry): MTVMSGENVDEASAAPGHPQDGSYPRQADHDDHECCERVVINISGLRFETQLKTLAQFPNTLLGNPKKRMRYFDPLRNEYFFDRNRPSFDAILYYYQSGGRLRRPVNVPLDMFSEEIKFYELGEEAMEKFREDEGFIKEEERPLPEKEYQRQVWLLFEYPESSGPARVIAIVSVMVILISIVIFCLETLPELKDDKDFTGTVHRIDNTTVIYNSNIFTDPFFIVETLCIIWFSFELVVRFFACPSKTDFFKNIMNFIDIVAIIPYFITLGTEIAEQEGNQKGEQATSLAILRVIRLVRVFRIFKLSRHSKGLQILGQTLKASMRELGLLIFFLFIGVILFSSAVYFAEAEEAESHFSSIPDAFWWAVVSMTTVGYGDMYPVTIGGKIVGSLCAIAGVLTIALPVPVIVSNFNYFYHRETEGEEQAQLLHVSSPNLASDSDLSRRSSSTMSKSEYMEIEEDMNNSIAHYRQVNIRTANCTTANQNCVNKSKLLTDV

| effect of a mutation on the interaction | Variant |
| --- | --- |
| disrupting interaction strength | Y441S |

Variants of: B6
Conditions: with ylat2_human SLC7A6, Q92536
Chain of ylat2_human SLC7A6, Q92536 (Q92536 whole entry): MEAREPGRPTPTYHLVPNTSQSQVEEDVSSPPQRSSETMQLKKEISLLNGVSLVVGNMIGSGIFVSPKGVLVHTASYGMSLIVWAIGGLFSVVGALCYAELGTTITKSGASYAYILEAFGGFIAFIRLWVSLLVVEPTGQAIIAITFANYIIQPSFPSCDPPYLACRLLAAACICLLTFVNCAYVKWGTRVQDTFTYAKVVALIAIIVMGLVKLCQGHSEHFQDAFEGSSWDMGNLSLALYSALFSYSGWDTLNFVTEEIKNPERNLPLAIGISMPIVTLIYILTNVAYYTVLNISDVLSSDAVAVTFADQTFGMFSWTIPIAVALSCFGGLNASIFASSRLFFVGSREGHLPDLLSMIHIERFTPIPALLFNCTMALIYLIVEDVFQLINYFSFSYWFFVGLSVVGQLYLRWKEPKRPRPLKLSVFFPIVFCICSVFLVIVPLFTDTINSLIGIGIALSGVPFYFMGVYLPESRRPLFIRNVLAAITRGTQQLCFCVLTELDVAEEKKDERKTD

| effect of a mutation on the interaction | Variant |
| --- | --- |
| with no effect | Y441S |

Variants of: B6
Conditions: with kca10_human KCNA10, Q16322
Remark: another data set of the same source

| effect of a mutation on the interaction | Variant |
| --- | --- |
| with no effect | Y441S |

Variants of: B6
Conditions: with kcna1_human KCNA1, Q09470
Remark: another data set of the same source

| effect of a mutation on the interaction | Variant |
| --- | --- |
| with no effect | Y441S |

Variants of: B6
Conditions: with synpr_human SYNPR

| effect of a mutation on the interaction | Variant |
| --- | --- |
| disrupting interaction strength | Y441S |

Variants of: B6
Conditions: with tm45b_human TMEM45B

| effect of a mutation on the interaction | Variant |
| --- | --- |
| disrupting interaction strength | Y441S |

Variants of: B6
Conditions: with cd79a_human CD79A

| effect of a mutation on the interaction | Variant |
| --- | --- |
| with no effect | Y441S |

Variants of: B6
Conditions: with cxa8_human GJA8, P48165
Chain of cxa8_human GJA8, P48165 (P48165 whole entry): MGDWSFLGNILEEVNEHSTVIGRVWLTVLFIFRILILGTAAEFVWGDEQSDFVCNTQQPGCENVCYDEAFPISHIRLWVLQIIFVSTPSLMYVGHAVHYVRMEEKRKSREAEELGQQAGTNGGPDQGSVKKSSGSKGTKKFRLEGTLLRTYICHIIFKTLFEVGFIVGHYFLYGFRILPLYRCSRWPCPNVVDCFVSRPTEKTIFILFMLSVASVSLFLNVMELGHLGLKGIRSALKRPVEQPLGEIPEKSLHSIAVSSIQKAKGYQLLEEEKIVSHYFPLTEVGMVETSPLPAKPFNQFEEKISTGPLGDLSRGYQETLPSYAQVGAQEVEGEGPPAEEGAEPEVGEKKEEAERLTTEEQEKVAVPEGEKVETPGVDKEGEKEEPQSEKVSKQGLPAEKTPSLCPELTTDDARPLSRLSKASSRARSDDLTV

| effect of a mutation on the interaction | Variant |
| --- | --- |
| with no effect | Y441S |

Variants of: B7
Conditions: with fate1_human FATE1, Q969F0

| effect of a mutation on the interaction | Variant |
| --- | --- |
| with no effect | G144W |

Variants of: B8
Conditions: with leutx_human LEUTX

| effect of a mutation on the interaction | Variant |
| --- | --- |
| with no effect | G144W |

Variants of: B9
Conditions: with psf3_human GINS3, Q9BRX5

| effect of a mutation on the interaction | Variant |
| --- | --- |
| disrupting interaction strength | V94D |
